Patent US20240059771A1 (SHANGHAI JUNSHI BIOSCIENCES, published 2024)
Substitutions are numbered along the chain they refer to.

B1: IMAB362 (antibody, V domains shown)
VH: QVQLQQPGAELVRPGASVKLSCKASGYTFTSYWINWVKQRPGQGLEWIGNIYPSDSYTNYNQKFKDKATLTVDKSSSTAYMQLSSPTSEDSAVYYCTRSWRGNSFDYWGQGTTLTVSS
VL: DIVMTQSPSSLTVTAGEKVTMSCKSSQSLLNSGNQKNYLTWYQQKPGQPPKLLIYWASTRESGVPDRFTGSGSGTDFTLTISSVQAEDLAVYYCQNDYSYPFTFGSGTKLEIKR
B2: humanized anti-CLDN-18.2 antibody JS012-Chi9-hu7-v2 (antibody, human IgG1, kappa, V domains shown)
VH: QVQLVQSGSELKKPGESVKVSCKASGYTFTNYGMNWVRQAPGQGLEWMGWINTYTGESTYADGFTGRFVFSMDTSASTAYLQISSLKAEDMAMYFCATLGYGNSLAYWGQGTLVTVSS
VL: DIVMTQSPDSLAVSLGERATINCKSSQSLLNSGNQRNYLTWYQQKPGQPPKLLIYWASTRESGVPDRFSGSGSGTDFTLTISSLQAEDVAVYYCQNNYFYPFTFGQGTKLEIKR
B3: humanized anti-CLDN-18.2 antibody JS012-Chi2-hu2-v3-2 (antibody, human IgG1, kappa, V domains shown)
VH: EVQLVESGGGLVQPGGSLRLSCAASGFTLNNFGMHWVRQAPGKGLEWVSSISSGSGTIYYADSVKGRFTISRDNPKNSLYLQMNSLRAEDTAVYYCARAYYGNGFSFWGQGTLVTVSS
VL: B2 VL with R36K, N97V, F99S, F102L
B4: humanized anti-CLDN-18.2 antibody JS012-Chi9-hu7 (antibody, human IgG1, kappa, V domains shown)
VH: B2 VH with V2I, M72S, S77R, M91T, M93V
VL: B2 VL
B5: humanized anti-CLDN-18.2 antibody JS012-Chi27-hu3-v2 (antibody, human IgG1, V domains shown)
VH: EVQLVESGGGLVKPGGSLRLSCAASGFTFSSYGMSWVRQAPGKGLEWVSTISGGDSYTYYPDSVRGRFTISRDNAKNSLYLQMNSLRAEDTAVYYCARSYNGNSLPYWGQGTLVTVSS
VL: DIVMTQSPDSLAVSLGERATINCKSSQSLLNSGNQRNYLTWYQQKPGQPPKLLIYWASTRESGVPDRFSGSGSGTDFTLTISSLQAEDVAVYYCQNNYFYPFTFGQGTKLEIK
B6: humanized anti-CLDN-18.2 antibody JS012-Chi27-hu6-v3-2 (antibody, human IgG1, V domains shown)
VH: B5 VH with W47S, N74I
VL: B5 VL
B7: anti-CLDN-18.2 chimeric antibody Chi-JS012-2 (antibody, V domains shown)
VH: DVQLVESGGGLVQPGGSRKLSCAASGFTLNNFGMHWVRQAPEKGLEWVACISSGSGTIYYADTVKGRFTISRDNPKNTLFLQMTSLRSEDTAMYYCARAYYGNGFSFWGQGTLVTVSS
VL: DIVMTQSPSSLTVTAGEKVTMSCKSSQSLLNSGNQKNYLTWYQQKPGQPPKLLIYWASTRESGVPDRFTGSGSGTDFTLTISSVQAEDLAIYYCQNVYSYPLTFGAGTKLEIK
notes: Fused to a human heavy chain constant region and a human kappa constant region cloned from human blood cells
B8: anti-CLDN-18.2 chimeric antibody Chi-JS012-27 (antibody, V domains shown)
VH: EVKLVESGGGLVKPGGSLKLSCAASGFTFSSYGMSWVRQTPEKRLECVATISGGDSYTYYPDSVRGRFTISRDIAKNNLYLQMSSLRSEDTALYYCARSYNGNSLPYWGQGTLVTVSS
VL: B7 VL with S7Y, S10F, A15T, K36R, T69A, V97N, S99F, L102F, A106S, I112V
notes: Human heavy chain constant region and human kappa constant region
B9: anti-CLDN-18.2 chimeric antibody Chi-JS012-9 (antibody, V domains shown)
VH: QIQLVQSGPELKKPGETVKISCKASGYTFTNYGMNWVKQAPGKGLKWMGWINTYTGESTYADDFKGRFAFSSETSARTAYLQINNLKNEDMATYFCATLGYGNSLAYWGQGTLVTVSS
VL: B7 VL with S7Y, S10F, A15T, K36R, T69A, V97N, S99F, L102F, A106S, I112V
notes: as for B8
B10: anti-CLDN-18.2 chimeric antibody Chi-JS012-10 (antibody, V domains shown)
VH: B9 VH
VL: B7 VL with S10F, E61D, S82T, I91V, Y92F, V97A, S99F, L102F, A106S
notes: as for B8
B11: anti-CLDN-18.2 chimeric antibody Chi-JS012-21 (antibody, V domains shown)
VH: B9 VH with D90G, T98R, L99S, G100Y, Y101N, A106P
VL: B7 VL with S7Y, S10F, A15T, K36R, T69A, V97N, S99F, L102F, A106S, I112V
notes: as for B8

What follows are binders tested against T1, human CLDN-18.2 (human, UniProt P56856-2 1-261) (assay: cell-based or functional assay).
In the case of B1, the “EC50 of ADCC effect (Jurkat NFAT-Luc/FcγRIIIaR reporter cells), FIG. 2a” value is reported as 0.036 µg/mL, the “EC50 of ADCC effect (Jurkat NFAT-Luc/FcγRIIIaR reporter cells), FIG. 2b” value is reported as 0.0344 µg/mL and the “EC50 of CDC effect (complement serum, PI staining, flow cytometry)” value is reported as 0.354 µg/mL.
In the case of B2, the “EC50 of ADCC effect (Jurkat ADCC NFAT luciferase reporter cells)” value is reported as 0.0225 µg/mL and the “EC50 of CDC effect (complement serum, PI staining, relative killing rate)” value is reported as 0.134 µg/mL.
For B3, the “EC50 of ADCC effect (Jurkat ADCC NFAT luciferase reporter cells)” value was 0.0142 µg/mL and the “EC50 of CDC effect (complement serum, PI staining, relative killing rate)” value was 0.167 µg/mL.
With B4 the “EC50 of ADCC effect (Jurkat ADCC NFAT luciferase reporter cells)” value was 0.0236 µg/mL and the “EC50 of CDC effect (complement serum, PI staining, relative killing rate)” value was 0.086 µg/mL.
For B5, the “EC50 of ADCC effect (Jurkat ADCC NFAT luciferase reporter cells)” value was 0.0358 µg/mL and the “EC50 of CDC effect (complement serum, PI staining, relative killing rate)” value was 0.169 µg/mL.
With B6 the “EC50 of ADCC effect (Jurkat ADCC NFAT luciferase reporter cells)” value was 0.0742 µg/mL and the “EC50 of CDC effect (complement serum, PI staining, relative killing rate)” value was 0.715 µg/mL.
For B7, the “EC50 of ADCC effect (Jurkat NFAT-Luc/FcγRIIIaR reporter cells)” value was 0.0561 µg/mL and the “EC50 of CDC effect (complement serum, PI staining, flow cytometry)” value was 0.461 µg/mL.
With B8 the “EC50 of ADCC effect (Jurkat NFAT-Luc/FcγRIIIaR reporter cells)” value was 0.0432 µg/mL and the “EC50 of CDC effect (complement serum, PI staining, flow cytometry)” value was 0.265 µg/mL.
B9 was tested, and the “EC50 of ADCC effect (Jurkat NFAT-Luc/FcγRIIIaR reporter cells)” value was 0.0436 µg/mL and the “EC50 of CDC effect (complement serum, PI staining, flow cytometry)” value was 0.316 µg/mL.
With B10 the “EC50 of ADCC effect (Jurkat NFAT-Luc/FcγRIIIaR reporter cells)” value was 0.0495 µg/mL and the “EC50 of CDC effect (complement serum, PI staining, flow cytometry)” value was 0.358 µg/mL.
With B11 the “EC50 of ADCC effect (Jurkat NFAT-Luc/FcγRIIIaR reporter cells)” value was 0.0631 µg/mL.

These binders were tested against T1, human CLDN-18.2 (assay: flow cytometry on NUGC4-CLDN-18.2 cells, 4 C 30 min, fluorescent secondary antibody).
Method: Finally, the fluorescence intensity was detected by BD CantoII flow cytometer. The stronger the fluorescent signal, the higher the affinity of the antibody to the target. The antibody dose-dependent binding curve was fitted by GraphPad (FIG. 1) and EC₅₀ was calculated (Table 3). The positive and negative controls were IMAB362 and anti-KLH hu-IgG1 antibody, respectively.
In the case of B7, the EC50 is reported as 4.02 µg/mL.
Work on B8 yielded an EC50 of 2.92 µg/mL.
With B9 the EC50 was 3.22 µg/mL.
Binder B10 has an EC50 of 3.19 µg/mL.
With B11 the EC50 was 2.37 µg/mL.

Each binder was assayed against T1, human CLDN-18.2 (assay: flow cytometry (FACS) on NUGC4-CLDN-18.2 cells, fluorescent secondary antibody, MFI).
Source text: Fluorescent signal was detected by FACS; the stronger the detected fluorescent signal, the higher the antibody affinity, that is, the higher the target binding activity. Antibody binding curves were fitted by GraphPad (FIGS. 4a, 4b and 4c), and the positive and negative controls were IMAB362 and anti-KLH hu-IgG1 antibody, respectively.
With B1 the EC50 was 1.39 µg/mL and the “EC50 (read off the curve)” value was ~2 µg/mL.
With B2 the “EC50 (read off the curve)” value was ~1 µg/mL.
For B3, the EC50 was 1.65 µg/mL.
With B4 the “EC50 (read off the curve)” value was ~1 µg/mL.
For B5, the “EC50 (read off the curve)” value was ~1 µg/mL.
In the case of B6, the “EC50 (read off the curve)” value is reported as ~5 µg/mL.
